What was measured:
[1] = system: A2780adr cells; assay: Cellular uptake, gold content by ICP-MS; type: in vitro ADME, human; details: 2 μM, 37 °C
Protocol: The uptake of 1 and 3, and Au1a by cancer cells and non-tumorigenic cells was examined in terms of the gold content in the cell lysates using ICP-MS.
(§1) B from 20.1 to 25 min and returned to initial conditions and equilibrated for 3 minutes.
(§2) The flow rate was 0.4 mL/min and the injection volume was 2 µL. The UPLC-QTOF-MS chromatograms of 1, 3, 4 and solvent control in acetonitrile were also recorded for the interpretation of UPLC-QTOF-MS chromatograms of the cell lysate.
(§3) Cellular uptake experiments. HCT116, A2780 and A2780adr (2×10 5 cells), and MIHA and NCM460 (3.5×10 5 cells) cells were grown on 6-well plates at 37 °C under an atmosphere of 5% CO2 for 48 h. […]
Au1a (2 µM; with 1 vol% DMSO). […] An aliquot of the cell suspension was subjected to Bio-rad protein assay with a microtitre plate reader at the absorbance at 595 nm, using bovine serum albumin as the protein standard. […] The solution mixture was heated at 65 °C with shaking overnight, and the gold content was determined by ICP-MS. […]
(§4) then removed and washed with PBS solution. The cells were then incubated with culture medium containing nanostructures of 1 (2 µM) and CellEvent Caspase-3/7 Green ReadyProbes Reagent (30 µL), or Au1a (2 µM; with 1 vol% DMSO) and CellEvent Caspase-3/7 Green ReadyProbes Reagent (30 µL) at 37 °C under an atmosphere of 5% CO2. […]

[2] = system: HCT116 cells; assay: Time-dependent induction of apoptosis, Caspase-3/7 Green ReadyProbes fluorescence microscopy; type: cell-based, human; details: HCT116, 2 μM, Caspase-3/7 Green Reagent
Protocol: as §1, §2
as §3, with “h. The culture medium was then removed, washed with PBS solution, and incubated with culture medium containing nanostructures of 1” for “h.”
Au1a (2 µM; with 1 vol% DMSO). At a predetermined time, the culture medium was removed and washed with PBS solution for three times. The cells were then harvested and dispersed in ice-cold water. An aliquot of the cell suspension was subjected to Bio-rad protein assay with a microtitre plate reader at the absorbance at 595 nm, using bovine serum albumin as the protein standard. […] The solution mixture was heated at 65 °C with shaking overnight, and the gold content was determined by ICP-MS. […]
as §4, with “CO2. Fluorescence images at different time intervals were recorded by the fluorescence microscope without washing the cells.” for “CO2.”
once every 2–3 days. The tumor volume was calculated by the equation: Volume (mm3) = l×w2/2, where l and w were the length and width of the tumor. At the end of the treatment, the nude mice were sacrificed and the tumor weight was measured. […]
At a predetermined time, the culture medium was removed and washed with PBS solution for three times. […] An aliquot of the cell suspension was subjected to Bio-rad protein assay with a microtitre plate reader at the absorbance at 595 nm, using bovine serum albumin as the protein standard. […]

[3] = Transmission electron microscopy of nanostructures; type: physicochemical; details: self-assembled in PBS
Source text: On the other hand, the almost neutral zeta potentials of the nanostructures of 1 and 2 validated the presence of PEG pendant in the shell of the nanostructures. The identity of gold species in the core of the nanostructures was supported by the good contrast of the core in the TEM images (Fig. 1c and S3a ^†) and energy-dispersive X-ray (EDX) spectra (Fig. 1f).
The gold content in NC1 was confirmed by EDX (Fig. 1g).

[4] = Release of hydrolyzed gold(III) porphyrin moiety in aqueous buffer solutions (dialysis, ICP-MS); type: physicochemical; details: for hydrolyzed product found: sodium acetate buffer pH 4, 37 °C
Protocol: The rate of the release of the gold(III) porphyrin moiety from the conjugates in aqueous buffer solutions at different pH values was determined according to the reported methodology.[24],[26],[27] Nanostructures of 1 and 2 were dissolved in PBS or sodium acetate buffer (pH 4.0) and then dialyzed against a large volume of PBS or sodium acetate buffer solution in the dark at 37 °C using a 1000 Da cut-off dialysis membrane (details are included in the ESI ^†). The quantity of the hydrolyzed gold(III) porphyrin moiety at different time points was determined by inductively coupled plasma mass spectrometry (ICP-MS; Fig. 2a). In PBS, 31% and 60% of 1 were hydrolyzed at 6 and 24 h, respectively, while only 2% and 3% of hydrolyzed product of 2 were found at 5 and 24 h, and more than 89% of 2 remained unhydrolyzed at 96 h. […] Faster release was also found upon incubation of 2 in pH 4 buffer solution compared to that in PBS, but the amount was still much smaller than that found in the study of 1. As the only difference between 1 and 2 is the chemical structure of the linkage for PEG conjugation, the faster release of the gold(III) porphyrin moiety from 1 in PBS than that from 2 should be attributed to the higher tendency of the ester bond in 1 to undergo hydrolytic cleavage than the amide bond in 2.[52] […]
Study on the release of hydrolyzed product from 1 and 2 in aqueous buffer solutions by ICP-MS. The nanostructures of gold(III) complex was dissolved in PBS solution (pH 7.4; 1 mg/mL) or sodium acetate buffer solution (pH 4.0; 1 mg/mL) and was dialyzed against 1 L of the buffer solution at 37 °C using semipermeable minidialysis tubes (molecular weight cut-off = 1,000 Da; GE Healthcare). At a predetermined time, an aliquot of solution was removed and dissolved in HNO3/HCl solution mixture (9:1, v/v; volume of aliquot: volume of acid mixture = 1:3). The solution mixture was heated at 65 °C with shaking overnight, and the gold content was determined by ICP-MS from three independent aliquots. […]

| Molecule | incubation time after which the amount in A2780adr cells decreases [1] | incubation time at which induction of apoptosis was apparent [2] | diameter of nanostructures (TEM) [3] | hydrolyzed (release of gold(III) porphyrin moiety) ([4]; PBS, 37 °C, 5 h) | hydrolyzed (release of gold(III) porphyrin moiety) ([4]; PBS, 37 °C, 24 h) | remained unhydrolyzed ([4]; PBS, 37 °C, 96 h) | hydrolyzed (release of gold(III) porphyrin moiety) ([4]; PBS, 37 °C, 6 h) | hydrolyzed product found ([4]; 6 h) | hydrolyzed product found ([4]; 24 h) |
| --- | --- | --- | --- | --- | --- | --- | --- | --- | --- |
| C1=Cc2nc1c(-c1ccccc1)c1ccc([n-]1)c(-c1ccccc1)c1nc(c(-c3ccccc3)c3ccc([n-]3)c2-c2ccccc2)C=C1.[Au+3].[Cl-] [Au1a, [Au(TPP)]Cl, reference compound] | 0.5 h | 12 h | – | – | – | – | – | – | – |
| COC(=O)c1ccc(C2=C3C=CC(=N3)C(c3ccccc3)=c3ccc4[n]3[Au+][n]3c(ccc32)C(c2ccccc2)=C2C=CC(=N2)C=4c2ccccc2)cc1.[Cl-] [Compound 3, [Au(TPP–COOCH3)]^+] | 0.75 h | – | – | – | – | – | – | – | – |
| [Au(TPP–CONH–PEG5000–OCH3)]Cl [Compound 2] | – | – | ~200 nm | 2% | 3% | more than 89% | – | – | – |
| [Au(TPP–COO–PEG5000–OCH3)]Cl [Compound 1] | – | 15 h | ca. 120 nm | – | 60% | – | 31% | 60% | 96% |
